This note sets out measurements from publication PMC10407929, “Determining DNA–Protein Binding Affinities and Specificities from Crude Lysates Using a Combined SILAC/TMT Labeling Strategy”.

Targets include SP1 (Homo sapiens, UniProt P08047); SP3 (Homo sapiens, UniProt Q02447); TFAP2A (Homo sapiens, UniProt P05549); HOXB9 (Homo sapiens, UniProt P17482); KLF1 (Homo sapiens, UniProt Q13351); KLF5 (Homo sapiens, UniProt Q13887); KLF12 (Homo sapiens, UniProt Q9Y4X4).
What all share (experiment): pulldown; 150 mM NaCl, 50 mM Tris pH 8.0, 0.25% NP-40, 1 mM DTT; 4 C, 2 h; 100 ug nuclear extract
Common to all, as to conditions: protein: extract; label: 5' biotin (strand 1)

A further data set addresses T1, VEZF1 (Homo sapiens, UniProt Q14119).
T1 sequence: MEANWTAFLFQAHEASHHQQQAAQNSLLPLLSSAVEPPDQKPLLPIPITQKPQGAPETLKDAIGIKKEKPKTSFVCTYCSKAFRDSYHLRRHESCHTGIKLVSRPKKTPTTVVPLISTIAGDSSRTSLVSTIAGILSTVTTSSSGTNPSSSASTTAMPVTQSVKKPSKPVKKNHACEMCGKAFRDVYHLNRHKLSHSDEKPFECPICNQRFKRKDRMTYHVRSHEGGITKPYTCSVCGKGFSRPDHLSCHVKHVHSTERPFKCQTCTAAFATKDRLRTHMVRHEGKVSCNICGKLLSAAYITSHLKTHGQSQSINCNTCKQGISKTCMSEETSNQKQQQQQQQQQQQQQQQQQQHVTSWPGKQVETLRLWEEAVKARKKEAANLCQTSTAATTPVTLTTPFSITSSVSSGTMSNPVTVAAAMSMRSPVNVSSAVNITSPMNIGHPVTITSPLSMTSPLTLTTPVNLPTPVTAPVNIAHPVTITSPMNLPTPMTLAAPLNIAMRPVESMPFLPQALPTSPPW

A further data set concerns the target T2, ZNF148 (Homo sapiens, UniProt Q9UQR1).
T2 sequence: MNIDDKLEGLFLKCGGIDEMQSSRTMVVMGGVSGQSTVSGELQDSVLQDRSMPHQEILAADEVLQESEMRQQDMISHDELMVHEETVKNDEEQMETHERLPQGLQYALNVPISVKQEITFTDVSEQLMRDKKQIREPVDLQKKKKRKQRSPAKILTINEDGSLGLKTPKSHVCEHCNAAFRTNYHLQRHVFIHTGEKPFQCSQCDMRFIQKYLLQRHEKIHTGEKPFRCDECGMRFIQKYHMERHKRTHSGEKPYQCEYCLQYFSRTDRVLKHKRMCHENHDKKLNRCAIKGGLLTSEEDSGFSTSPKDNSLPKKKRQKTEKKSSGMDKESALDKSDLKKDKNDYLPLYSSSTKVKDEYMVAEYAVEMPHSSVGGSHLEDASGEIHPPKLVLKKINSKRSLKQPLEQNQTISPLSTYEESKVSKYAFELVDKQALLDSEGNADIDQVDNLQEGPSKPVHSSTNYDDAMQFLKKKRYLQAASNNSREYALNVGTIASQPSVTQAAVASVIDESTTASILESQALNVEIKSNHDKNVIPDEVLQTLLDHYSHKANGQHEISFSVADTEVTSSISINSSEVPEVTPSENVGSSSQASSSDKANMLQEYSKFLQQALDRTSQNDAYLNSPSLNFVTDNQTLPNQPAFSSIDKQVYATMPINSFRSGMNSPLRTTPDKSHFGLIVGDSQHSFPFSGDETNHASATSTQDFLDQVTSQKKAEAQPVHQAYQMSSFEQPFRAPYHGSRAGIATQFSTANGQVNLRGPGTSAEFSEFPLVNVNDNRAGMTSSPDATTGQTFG

Data set [1] addresses T3, MAZ (Homo sapiens, UniProt P56270).
T3 sequence: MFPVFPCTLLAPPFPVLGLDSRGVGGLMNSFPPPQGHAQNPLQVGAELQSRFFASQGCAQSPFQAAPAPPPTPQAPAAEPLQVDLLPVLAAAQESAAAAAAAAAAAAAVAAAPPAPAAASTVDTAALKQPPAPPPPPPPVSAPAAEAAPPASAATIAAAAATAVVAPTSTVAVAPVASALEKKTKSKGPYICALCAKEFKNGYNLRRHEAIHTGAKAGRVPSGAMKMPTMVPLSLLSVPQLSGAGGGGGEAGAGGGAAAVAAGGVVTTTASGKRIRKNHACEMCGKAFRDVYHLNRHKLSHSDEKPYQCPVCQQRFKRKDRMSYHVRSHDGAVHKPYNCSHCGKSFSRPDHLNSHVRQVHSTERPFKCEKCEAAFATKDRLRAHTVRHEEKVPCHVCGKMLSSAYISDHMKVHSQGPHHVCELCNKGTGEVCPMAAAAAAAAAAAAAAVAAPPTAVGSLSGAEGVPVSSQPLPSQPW

Data set [2] has as its target T4, MAZ (Homo sapiens, UniProt P56270).
T4 sequence: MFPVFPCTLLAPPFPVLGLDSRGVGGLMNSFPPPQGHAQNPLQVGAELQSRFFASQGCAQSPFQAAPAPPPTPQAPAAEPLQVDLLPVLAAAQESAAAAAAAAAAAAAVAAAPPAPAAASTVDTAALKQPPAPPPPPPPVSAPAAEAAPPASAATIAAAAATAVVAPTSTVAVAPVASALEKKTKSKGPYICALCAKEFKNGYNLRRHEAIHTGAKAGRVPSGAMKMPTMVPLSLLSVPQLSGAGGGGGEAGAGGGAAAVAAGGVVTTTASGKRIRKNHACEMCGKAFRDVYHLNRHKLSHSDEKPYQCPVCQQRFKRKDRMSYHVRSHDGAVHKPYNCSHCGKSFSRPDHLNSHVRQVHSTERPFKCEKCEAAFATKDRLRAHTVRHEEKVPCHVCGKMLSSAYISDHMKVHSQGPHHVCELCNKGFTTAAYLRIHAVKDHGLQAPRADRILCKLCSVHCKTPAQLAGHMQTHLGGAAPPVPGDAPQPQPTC
This is another data set of the same source.

Another data set deals with T5, BANP (Homo sapiens, UniProt Q8N9N5).
T5 sequence: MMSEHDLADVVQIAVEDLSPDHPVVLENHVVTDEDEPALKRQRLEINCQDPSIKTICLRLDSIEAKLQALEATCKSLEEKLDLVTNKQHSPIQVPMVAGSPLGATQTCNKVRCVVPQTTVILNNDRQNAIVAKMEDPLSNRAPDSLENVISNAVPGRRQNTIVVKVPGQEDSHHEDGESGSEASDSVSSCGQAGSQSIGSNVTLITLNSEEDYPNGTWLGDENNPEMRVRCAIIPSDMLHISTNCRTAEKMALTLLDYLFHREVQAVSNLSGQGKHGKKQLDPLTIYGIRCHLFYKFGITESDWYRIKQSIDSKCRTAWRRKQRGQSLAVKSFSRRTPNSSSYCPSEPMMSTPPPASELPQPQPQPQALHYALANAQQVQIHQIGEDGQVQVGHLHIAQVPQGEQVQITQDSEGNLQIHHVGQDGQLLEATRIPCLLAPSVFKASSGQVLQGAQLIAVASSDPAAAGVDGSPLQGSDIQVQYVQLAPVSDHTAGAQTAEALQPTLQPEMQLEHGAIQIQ

The target of the next data set is T6, BEND3 (Homo sapiens, UniProt Q5T5X7).
T6 sequence: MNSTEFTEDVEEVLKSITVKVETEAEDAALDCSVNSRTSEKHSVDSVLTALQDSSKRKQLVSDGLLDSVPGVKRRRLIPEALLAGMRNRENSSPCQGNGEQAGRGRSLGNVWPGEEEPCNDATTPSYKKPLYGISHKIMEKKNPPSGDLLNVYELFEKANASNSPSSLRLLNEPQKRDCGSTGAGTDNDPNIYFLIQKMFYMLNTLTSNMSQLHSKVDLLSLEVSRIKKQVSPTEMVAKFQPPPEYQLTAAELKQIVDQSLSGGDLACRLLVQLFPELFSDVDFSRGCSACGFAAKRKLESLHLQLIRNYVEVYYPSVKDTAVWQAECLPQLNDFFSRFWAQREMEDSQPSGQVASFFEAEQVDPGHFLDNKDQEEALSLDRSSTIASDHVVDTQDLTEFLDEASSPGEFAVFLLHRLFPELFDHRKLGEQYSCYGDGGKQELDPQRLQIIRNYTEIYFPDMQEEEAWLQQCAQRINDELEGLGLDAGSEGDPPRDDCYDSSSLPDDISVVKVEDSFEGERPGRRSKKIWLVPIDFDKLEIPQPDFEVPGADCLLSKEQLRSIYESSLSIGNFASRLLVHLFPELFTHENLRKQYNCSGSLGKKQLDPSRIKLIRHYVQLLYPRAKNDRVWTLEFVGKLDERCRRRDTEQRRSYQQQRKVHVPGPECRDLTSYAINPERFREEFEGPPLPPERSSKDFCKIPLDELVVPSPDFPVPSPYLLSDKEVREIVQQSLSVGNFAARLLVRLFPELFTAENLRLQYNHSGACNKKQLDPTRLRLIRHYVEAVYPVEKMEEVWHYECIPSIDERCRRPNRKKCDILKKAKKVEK

Values joined by “and” are separate entries in the source; they are usually repeats but may differ in a detail not shown here. Equal values may be shown once.

Chain of SP1 (P08047 whole entry): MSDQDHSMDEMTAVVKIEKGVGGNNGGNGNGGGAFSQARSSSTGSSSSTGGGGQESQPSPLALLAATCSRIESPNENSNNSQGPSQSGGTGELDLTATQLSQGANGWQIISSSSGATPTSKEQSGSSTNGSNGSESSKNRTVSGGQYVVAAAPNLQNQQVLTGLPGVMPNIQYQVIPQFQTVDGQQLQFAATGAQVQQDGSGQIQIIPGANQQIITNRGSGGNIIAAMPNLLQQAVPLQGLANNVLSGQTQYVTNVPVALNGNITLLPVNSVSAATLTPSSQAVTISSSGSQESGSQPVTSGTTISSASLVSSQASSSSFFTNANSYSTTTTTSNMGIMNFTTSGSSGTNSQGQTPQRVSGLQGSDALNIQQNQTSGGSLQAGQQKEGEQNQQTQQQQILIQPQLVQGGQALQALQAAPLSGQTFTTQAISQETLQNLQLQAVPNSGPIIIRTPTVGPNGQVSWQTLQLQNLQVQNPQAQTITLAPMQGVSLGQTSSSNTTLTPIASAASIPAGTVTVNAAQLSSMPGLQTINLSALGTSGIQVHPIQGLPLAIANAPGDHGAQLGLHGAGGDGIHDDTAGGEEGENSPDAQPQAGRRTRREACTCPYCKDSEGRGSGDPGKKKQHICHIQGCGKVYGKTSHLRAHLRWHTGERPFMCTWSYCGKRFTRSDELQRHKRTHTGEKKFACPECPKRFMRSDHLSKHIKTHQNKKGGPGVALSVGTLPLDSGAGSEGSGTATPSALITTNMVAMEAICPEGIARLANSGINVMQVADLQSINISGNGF
Chain of KLF5 (Q13887 whole entry): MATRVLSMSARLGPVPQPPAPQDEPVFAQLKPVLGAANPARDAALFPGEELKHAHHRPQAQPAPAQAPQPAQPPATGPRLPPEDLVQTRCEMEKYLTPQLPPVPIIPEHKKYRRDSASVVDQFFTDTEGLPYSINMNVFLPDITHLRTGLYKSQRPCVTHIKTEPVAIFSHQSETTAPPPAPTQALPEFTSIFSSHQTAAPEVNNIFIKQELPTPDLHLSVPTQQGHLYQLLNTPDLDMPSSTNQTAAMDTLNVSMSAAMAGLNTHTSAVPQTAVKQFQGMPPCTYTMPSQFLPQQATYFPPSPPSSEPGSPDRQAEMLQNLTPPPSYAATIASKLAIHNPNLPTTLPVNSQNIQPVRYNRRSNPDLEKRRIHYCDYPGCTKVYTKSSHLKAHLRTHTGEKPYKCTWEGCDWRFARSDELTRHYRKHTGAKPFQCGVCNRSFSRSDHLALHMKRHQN
Chain of KLF12 (Q9Y4X4 whole entry): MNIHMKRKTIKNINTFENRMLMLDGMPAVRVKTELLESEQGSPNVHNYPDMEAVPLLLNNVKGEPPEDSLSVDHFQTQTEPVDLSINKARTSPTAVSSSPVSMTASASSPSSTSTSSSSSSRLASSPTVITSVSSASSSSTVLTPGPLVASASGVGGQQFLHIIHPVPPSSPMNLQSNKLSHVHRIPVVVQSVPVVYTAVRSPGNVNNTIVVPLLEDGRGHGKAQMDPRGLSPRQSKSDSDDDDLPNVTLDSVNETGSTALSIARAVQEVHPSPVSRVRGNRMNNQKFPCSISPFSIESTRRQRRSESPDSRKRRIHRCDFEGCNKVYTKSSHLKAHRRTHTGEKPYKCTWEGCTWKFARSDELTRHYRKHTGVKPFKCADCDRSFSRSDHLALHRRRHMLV
Chain of TFAP2A (P05549 whole entry): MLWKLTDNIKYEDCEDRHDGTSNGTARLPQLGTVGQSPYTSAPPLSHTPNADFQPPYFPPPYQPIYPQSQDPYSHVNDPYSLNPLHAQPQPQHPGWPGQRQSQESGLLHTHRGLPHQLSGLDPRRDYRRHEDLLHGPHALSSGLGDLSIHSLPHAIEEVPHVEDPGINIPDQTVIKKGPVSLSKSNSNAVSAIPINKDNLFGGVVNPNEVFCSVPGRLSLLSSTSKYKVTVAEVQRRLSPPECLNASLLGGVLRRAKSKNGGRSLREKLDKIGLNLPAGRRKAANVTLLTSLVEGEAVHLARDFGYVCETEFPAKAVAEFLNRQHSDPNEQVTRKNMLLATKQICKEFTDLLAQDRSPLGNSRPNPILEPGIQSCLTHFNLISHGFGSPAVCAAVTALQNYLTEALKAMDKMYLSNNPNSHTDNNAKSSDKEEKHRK
Chain of KLF1 (Q13351 whole entry): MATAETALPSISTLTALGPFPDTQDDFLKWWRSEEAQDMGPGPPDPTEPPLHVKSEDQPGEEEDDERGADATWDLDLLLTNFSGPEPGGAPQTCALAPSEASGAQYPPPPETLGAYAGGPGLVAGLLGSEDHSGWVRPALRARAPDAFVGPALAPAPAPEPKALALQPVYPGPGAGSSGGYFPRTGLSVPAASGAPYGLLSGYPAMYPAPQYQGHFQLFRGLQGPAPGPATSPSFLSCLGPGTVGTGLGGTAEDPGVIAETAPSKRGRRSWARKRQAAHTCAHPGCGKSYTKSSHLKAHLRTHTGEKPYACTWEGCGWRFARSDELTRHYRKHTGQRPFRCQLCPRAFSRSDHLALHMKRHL
Chain of HOXB9 (P17482 whole entry): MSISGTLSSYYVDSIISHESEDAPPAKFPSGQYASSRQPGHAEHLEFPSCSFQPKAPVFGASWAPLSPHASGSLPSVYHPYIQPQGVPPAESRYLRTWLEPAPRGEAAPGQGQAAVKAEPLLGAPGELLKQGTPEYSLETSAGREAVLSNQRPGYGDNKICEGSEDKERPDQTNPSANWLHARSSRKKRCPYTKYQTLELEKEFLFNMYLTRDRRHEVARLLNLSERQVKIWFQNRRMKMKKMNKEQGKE
Chain of SP3 (Q02447 whole entry): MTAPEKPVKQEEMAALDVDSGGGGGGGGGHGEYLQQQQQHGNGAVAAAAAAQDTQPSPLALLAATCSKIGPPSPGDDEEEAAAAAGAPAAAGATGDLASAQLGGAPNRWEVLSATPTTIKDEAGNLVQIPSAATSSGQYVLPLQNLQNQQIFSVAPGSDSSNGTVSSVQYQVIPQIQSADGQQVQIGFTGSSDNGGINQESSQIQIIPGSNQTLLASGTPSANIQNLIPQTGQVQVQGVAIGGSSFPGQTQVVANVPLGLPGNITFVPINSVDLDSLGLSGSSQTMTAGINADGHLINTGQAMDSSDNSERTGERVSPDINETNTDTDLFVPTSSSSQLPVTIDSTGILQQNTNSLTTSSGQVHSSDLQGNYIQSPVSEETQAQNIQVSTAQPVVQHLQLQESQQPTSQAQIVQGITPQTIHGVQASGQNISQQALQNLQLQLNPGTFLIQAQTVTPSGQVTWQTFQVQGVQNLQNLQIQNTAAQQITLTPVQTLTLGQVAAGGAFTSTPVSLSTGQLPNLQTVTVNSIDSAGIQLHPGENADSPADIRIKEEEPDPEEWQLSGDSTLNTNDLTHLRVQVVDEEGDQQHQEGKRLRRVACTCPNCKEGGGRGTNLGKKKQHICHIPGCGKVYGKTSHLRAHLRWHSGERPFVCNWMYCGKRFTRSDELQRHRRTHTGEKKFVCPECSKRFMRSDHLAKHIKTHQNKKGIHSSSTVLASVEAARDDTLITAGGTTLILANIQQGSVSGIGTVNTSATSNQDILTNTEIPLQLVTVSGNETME

B1: SP/KLF negative control bait (dsDNA)
DNA 1: GAGAGAAAATAAAACTGGCT
DNA 2: AGCCAGTTTTATTTTCTCTC
For B1, in the data set with VEZF1, the “apparent K (half saturation)” value was more than 1180 nM.

B2: SP/KLF bait (dsDNA)
DNA 1: GAGAGCCCCGCCCCCTGGCT
DNA 2: AGCCAGGGGGCGGGGCTCTC
Turning to B2, the “apparent K (half saturation)” value in the data set with ZNF148 was 54.2 nM; in the data set with SP1 it was 13.8 nM; with VEZF1, 90.4 nM; in the data set with SP3, 6.26 nM; with TFAP2A it was 162 nM.

B3: CGCG bait (dsDNA)
DNA 1: GCCGCCGCCCTTCTCGCGAGACTGCCGGGCC
DNA 2: GGCCCGGCAGTCTCGCGAGAAGGGCGGCGGC
As to B3, the “apparent K (half saturation)” value with MAZ [1] is 203 nM; with VEZF1, 333 nM; with HOXB9 it was 323 nM; with KLF1, 83 nM; with MAZ [2], 153 nM; in the data set with BANP, 6.9 nM and 11.3 nM.

B4: BEND3 bait (dsDNA)
DNA 1: GCCGCCGCCCTCCCACGCGCTGCCGGGCC
DNA 2: GGCCCGGCAGCGCGTGGGAGGGCGGCGGC
B4: the “apparent K (half saturation)” value turned out to be 227 nM with KLF5; 166 nM with BEND3; 346 nM in the data set with KLF12; 289 nM with SP1; 56.4 nM with MAZ [1]; 110 nM in the data set with VEZF1.
